Source: US5928931A, “Isolation, purification and cloning of retinol dehydratase” (Cornell Research Foundation, Inc., priority 1997, dated 1999)

How the values were obtained:
[1] = substrate: Nc1ncnc2c1ncn2[C@@H]1O[C@H](COP(=O)(O)OS(=O)(=O)O)[C@@H](OP(=O)(O)O)[C@H]1O; test: purified protein, by the assay type; conditions: other: purified recombinant retinol dehydratase, [3H]-retinol assay, n=3; 24.0 °C
[2] = substrate: CC1=C(/C=C/C(C)=C/C=C/C(C)=C/CO)C(C)(C)CCC1; test: Retinol dehydratase assay ([3H]-retinol to [3H]-AR, HPLC radiomatic detection); kinetic studies; assay type: biochemical, Spodoptera frugiperda; conditions: 24.0 °C
Protocol: 20-50 μl aliquots of supernatant/column fractions were incubated with 1 μCi of [^3 H]-retinol and 20 μl of high speed supernatant from sonicated Sf-9 cells in 200 μl assay buffer (20 mM Tris.Cl pH 7.5, 150 mM NaCl, I mM MgCI2) for 15-60 minutes at 24° C. […] Samples were delipidated and [^3 H]-AR production quantified by a liquid scintillation radiomatic detector in series with HPLC gradient elution (20 mM Tris pH 7.4/methanol/chloroform) from a C-18 Reverse Phase 201TP54 column (Vydac, Separations Group, Hesperia, Calif.) as described by McClean et al., Clin. Chem., 28:693-96 (1982) and Derguini et al., Angew.
Kinetic studies were performed with native retinol dehydratase (0.1 μg/assay) and ^3 H-retinol in the presence of constant substrate carrier protein concentrations, either delipidated BSA or recombinant cellular retinol binding protein ("CRBP"). The initial rate of AR synthesis at different substrate concentrations was determined by radiomatic detection of ^3 H-AR after HPLC separation. […] Conversion of ^3 H-retinol was less than 10% of the total at the end point of each assay.
Carrier protein for retinol (delipidated bovine serum albumin or recombinant human CRBP) was added to reduce nonspecific binding and micelle formation.

B1: retinol dehydratase (Spodoptera frugiperda) (protein)
chain: MEKQQDLPFPYEFRELNPEEDKLVKANLGAFPTTYVKLGPKGYMVYRPYLKDAANIYNMPLRPTDVFVASYQRSGTTMTQELVWLIENDLNFEAAKTYMSLRYIYLDGFMIYDPEKQEEYNDILPNPENLDMERYLGLLEYFSRPGSSLLAAVPPTEKRFVKTHLPLSLMPPNMLDTVKMVYLARDPRDVAVSSFHHARLLYLLNKQSNFKDFWEMFHRGLYTLTPYFEHVKEAWAKRHDPNMLFLFYEDYLKDLPGCIARIADFLGKKLSEEQIQRLCEHLNFEKFKNNGAVNMEDYREIGILADGEHFIRKGKAGCWRDYFDEEMTKQAEKWIKDNLKDTDLRYPNMEL
Km [1]: 0.26 ± 0.05 µM
Km ([2]; other: BSA carrier, second condition as printed): 0.05 µM
Km ([2]; other: n=5, free retinol from carrier protein affinities): 0.001 µM
Km ([2]; other: native retinol dehydratase 0.1 μg/assay, 3H-retinol, carrier BSA or CRBP, free retinol, representative experiment, non-linear regression): 0.00066 µM
Km ([2]; other: with 2×10^-7 M CRBP-1): 0.025 µM
Km ([2]; other: with 10^-3 M BSA): 0.4 µM
